In data set [1] the test system is HeLa Kyoto. Description: solubility change mitosis vs G1/S (difference of NP-40 vs SDS log2 ratios) (log2 ratio difference); higher = more soluble in mitosis.
Data set [2] deals with HeLa Kyoto. The experiment in a line: thermal stability score vs G1/S (z-score of summed log2 fold changes over temperatures); higher = more thermally stable than in G1/S.
In data set [3] the test system is HeLa Kyoto. Description: melting temperature (median over replicates), in situ; higher = more thermally stable.
The subject of data set [4] is HeLa Kyoto. The experiment in a line: solubility in G1/S (NP-40 vs SDS abundance) (log2 ratio); higher = more soluble. The conditions noted are these: cell cycle stage: G1/S.
Setting [5] is: cell cycle stage: early G1 (4.5 h after nocodazole release).

The results in this text go back to the supplement of paper PMC5998384.
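Wherever melting temperature (median over replicates), in situ is given: HeLa Kyoto cells synchronized by double thymidine or nocodazole block, proteins quantified by TMT10plex mass spectrometry, three independent biological replicates.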
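Wherever solubility change mitosis vs G1/S (difference of NP-40 vs SDS log2 ratios) is given: synchronized HeLa Kyoto cells (double thymidine block for G1/S, nocodazole release for mitosis), protein amounts in NP-40 versus SDS lysates quantified by mass spectrometry, three biological replicates.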
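Wherever solubility in G1/S (NP-40 vs SDS abundance) is given: HeLa Kyoto cells arrested at G1/S by double thymidine block, proteins quantified by TMT10plex mass spectrometry in mild NP-40 versus SDS extracts, three biological replicates.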
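Wherever thermal stability score vs G1/S (z-score of summed log2 fold changes over temperatures) is given: synchronized HeLa Kyoto cells, proteins quantified by TMT10plex mass spectrometry, three biological replicates, mitosis taken 0.5 h after nocodazole release, G1/S directly after double thymidine block.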

As for “MAEARKRRELLPLIYHHLLRAGYVRAAREVKEQSGQKCFLAQPVTLLDIYTHWQQTSELGRKRKAEEDAALQAKKTRVSDPISTSESSEEEEEAEAETAKATPRLASTNSSVLGADLPSSMKEKAKAETEKAGKTGNSMPHPATGKTVANLLSGKSPRKSAEPSANTTLVSETEEEGSVPAFGAAAKPGMVSAGQADSSSEDTSSSSDETDVEGKPSVKPAQVKASSVSTKESPARKAAPAPGKVGDVTPQVKGGALPPAKRAKKPEEESESSEEGSESEEEAPAGTRSQVKASEKILQVRAASAPAKGTPGKGATPAPPGKAGAVASQTKAGKPEEDSESSSEESSDSEEETPAAKALLQAKASGKTSQVGAASAPAKESPRKGAAPAPPGKTGPAVAKAQAGKREEDSQSSSEESDSEEEAPAQAKPSGKAPQVRAASAPAKESPRKGAAPAPPRKTGPAAAQVQVGKQEEDSRSSSEESDSDREALAAMNAAQVKPLGKSPQVKPASTMGMGPLGKGAGPVPPGKVGPATPSAQVGKWEEDSESSSEESSDSSDGEVPTAVAPAQEKSLGNILQAKPTSSPAKGPPQKAGPVAVQVKAEKPMDNSESSEESSDSADSEEAPAAMTAAQAKPALKIPQTKACPKKTNTTASAKVAPVRVGTQAPRKAGTATSPAGSSPAVAGGTQRPAEDSSSSEESDSEEEKTGLAVTVGQAKSVGKGLQVKAASVPVKGSLGQGTAPVLPGKTGPTVTQVKAEKQEDSESSEEESDSEEAAASPAQVKTSVKKTQAKANPAAARAPSAKGTISAPGKVVTAAAQAKQRSPSKVKPPVRNPQNSTVLARGPASVPSVGKAVATAAQAQTGPEEDSGSSEEESDSEEEAETLAQVKPSGKTHQIRAALAPAKESPRKGAAPTPPGKTGPSAAQAGKQDDSGSSSEESDSDGEAPAAVTSAQVIKPPLIFVDPNRSPAGPAATPAQAQAASTPRKARASESTARSSSSESEDEDVIPATQCLTPGIRTNVVTMPTAHPRIAPKASMAGASSSKESSRISDGKKQEGPATQVSKKNPASLPLTQAALKVLAQKASEAQPPVARTQPSSGVDSAVGTLPATSPQSTSVQAKGTNKLRKPKLPEVQQATKAPESSDDSEDSSDSSSGSEEDGEGPQGAKSAHTLGPTPSRTETLVEETAAESSEDDVVAPSQSLLSGYMTPGLTPANSQASKATPKLDSSPSVSSTLAAKDDPDGKQEAKPQQAAGMLSPKTGGKEAASGTTPQKSRKPKKGAGNPQASTLALQSNITQCLLGQPWPLNEAQVQASVVKVLTELLEQERKKVVDTTKESSRKGWESRKRKLSGDQPAARTPRSKKKKKLGAGEGGEASVSPEKTSTTSKGKAKRDKASGDVKEKKGKGSLGSQGAKDEPEEELQKGMGTVEGGDQSNPKSKKEKKKSDKRKKDKEKKEKKKKAKKASTKDSESPSQKKKKKKKKTAEQTV [TCOF1]”, the “solubility change mitosis (log2)” value in the data set on HeLa Kyoto [1] turned out to be 0.223. Further, the thermal stability score in the data set with HeLa Kyoto [2] (setting [5]) was -3.49; with HeLa Kyoto [2] (cell cycle stage: mitosis) it was -1.37. The melting temperature in the data set with HeLa Kyoto [3] (cell cycle stage: G1/S) came out at 53.2 °C; with HeLa Kyoto [3] (cell cycle stage: mitosis) it was 52.9 °C. For the same sequence, the “solubility in G1/S (log2)” value in the data set on HeLa Kyoto [4] was -0.327.
Take “MDREERKTINQGQEDEMEIYGYNLSRWKLAIVSLGVICSGGFLLLLLYWMPEWRVKATCVRAAIKDCEVVLLRTTDEFKMWFCAKIRVLSLETYPVSSPKSMSNKLSNGHAVCLIENPTEENRHRISKYSQTESQQIRYFTHHSVKYFWNDTIHNFDFLKGLDEGVSCTSIYEKHSAGLTKGMHAYRKLLYGVNEIAVKVPSVFKLLIKEVLNPFYIFQLFSVILWSTDEYYYYALAIVVMSIVSIVSSLYSIRKQYVMLHDMVATHSTVRVSVCRVNEEIEEIFSTDLVPGDVMVIPLNGTIMPCDAVLINGTCIVNESMLTGESVPVTKTNLPNPSVDVKGIGDELYNPETHKRHTLFCGTTVIQTRFYTGELVKAIVVRTGFSTSKGQLVRSILYPKPTDFKLYRDAYLFLLCLVAVAGIGFIYTIINSILNEVQVGVIIIESLDIITITVPPALPAAMTAGIVYAQRRLKKIGIFCISPQRINICGQLNLVCFDKTGTLTEDGLDLWGIQRVENARFLSPEENVCNEMLVKSQFVACMATCHSLTKIEGVLSGDPLDLKMFEAIGWILEEATEEETALHNRIMPTVVRPPKQLLPESTPAGNQEMELFELPATYEIGIVRQFPFSSALQRMSVVARVLGDRKMDAYMKGAPEAIAGLCKPETVPVDFQNVLEDFTKQGFRVIALAHRKLESKLTWHKVQNISRDAIENNMDFMGLIIMQNKLKQETPAVLEDLHKANIRTVMVTGDSMLTAVSVARDCGMILPQDKVIIAEALPPKDGKVAKINWHYADSLTQCSHPSAIDPEAIPVKLVHDSLEDLQMTRYHFAMNGKSFSVILEHFQDLVPKLMLHGTVFARMAPDQKTQLIEALQNVDYFVGMCGDGANDCGALKRAHGGISLSELEASVASPFTSKTPSISCVPNLIREGRAALITSFCVFKFMALYSIIQYFSVTLLYSILSNLGDFQFLFIDLAIILVVVFTMSLNPAWKELVAQRPPSGLISGALLFSVLSQIIICIGFQSLGFFWVKQQPWYEVWHPKSDACNTTGSGFWNSSHVDNETELDEHNIQNYENTTVFFISSFQYLIVAIAFSKGKPFRQPCYKNYFFVFSVIFLYIFILFIMLYPVASVDQVLQIVCVPYQWRVTMLIIVLVNAFVSITVEESVDRWGKCCLPWALGCRKKTPKAKYMYLAQELLVDPEWPPKPQTTTEAKALVKENGSCQIITIT [ATP13A3]”: the “solubility change mitosis (log2)” value in the data set with HeLa Kyoto [1] is -0.0406. Also, the results for the thermal stability score in the data set with HeLa Kyoto [2] (setting [5]) and in the data set with HeLa Kyoto [2] (cell cycle stage: mitosis) were -0.654 and -0.884, respectively. Also, the melting temperature stood at 54.3 °C with HeLa Kyoto [3] (cell cycle stage: G1/S) and 53.9 °C in the data set on HeLa Kyoto [3] (cell cycle stage: mitosis). Besides, in the data set with HeLa Kyoto [4], the “solubility in G1/S (log2)” value was -0.205.
As to “MSLHGKRKEIYKYEAPWTVYAMNWSVRPDKRFRLALGSFVEEYNNKVQLVGLDEESSEFICRNTFDHPYPTTKLMWIPDTKGVYPDLLATSGDYLRVWRVGETETRLECLLNNNKNSDFCAPLTSFDWNEVDPYLLGTSSIDTTCTIWGLETGQVLGRVNLVSGHVKTQLIAHDKEVYDIAFSRAGGGRDMFASVGADGSVRMFDLRHLEHSTIIYEDPQHHPLLRLCWNKQDPNYLATMAMDGMEVVILDVRVPCTPVARLNNHRACVNGIAWAPHSSCHICTAADDHQALIWDIQQMPRAIEDPILAYTAEGEINNVQWASTQPDWIAICYNNCLEILRV [DCAF7]”, the “solubility change mitosis (log2)” value with HeLa Kyoto [1] is -0.147. The thermal stability score was 0.282 in the data set with HeLa Kyoto [2] (setting [5]) and -1.1 with HeLa Kyoto [2] (cell cycle stage: mitosis). Besides, the melting temperature in the data set on HeLa Kyoto [3] (cell cycle stage: G1/S) stood at 52.2 °C; with HeLa Kyoto [3] (cell cycle stage: mitosis), 52.5 °C. For the same sequence, in the data set on HeLa Kyoto [4], the “solubility in G1/S (log2)” value was -0.0563.
On to “MTAAENVCYTLINVPMDSEPPSEISLKNDLEKGDVKSKTEALKKVIIMILNGEKLPGLLMTIIRFVLPLQDHTIKKLLLVFWEIVPKTTPDGRLLHEMILVCDAYRKDLQHPNEFIRGSTLRFLCKLKEAELLEPLMPAIRACLEHRHSYVRRNAVLAIYTIYRNFEHLIPDAPELIHDFLVNEKDASCKRNAFMMLIHADQDRALDYLSTCIDQVQTFGDILQLVIVELIYKVCHANPSERARFIRCIYNLLQSSSPAVKYEAAGTLVTLSSAPTAIKAAAQCYIDLIIKESDNNVKLIVLDRLIELKEHPAHERVLQDLVMDILRVLSTPDLEVRKKTLQLALDLVSSRNVEELVIVLKKEVIKTNNVSEHEDTDKYRQLLVRTLHSCSVRFPDMAANVIPVLMEFLSDNNEAAAADVLEFVREAIQRFDNLRMLIVEKMLEVFHAIKSVKIYRGALWILGEYCSTKEDIQSVMTEIRRSLGEIPIVESEIKKEAGELKPEEEITVGPVQKLVTEMGTYATQSALSSSRPTKKEEDRPPLRGFLLDGDFFVAASLATTLTKIALRYVALVQEKKKQNSFVAEAMLLMATILHLGKSSLPKKPITDDDVDRISLCLKVLSECSPLMNDIFNKECRQSLSHMLSAKLEEEKLSQKKESEKRNVTVQPDDPISFMQLTAKNEMNCKEDQFQLSLLAAMGNTQRKEAADPLASKLNKVTQLTGFSDPVYAEAYVHVNQYDIVLDVLVVNQTSDTLQNCTLELATLGDLKLVEKPSPLTLAPHDFANIKANVKVASTENGIIFGNIVYDVSGAASDRNCVVLSDIHIDIMDYIQPATCTDAEFRQMWAEFEWENKVTVNTNMVDLNDYLQHILKSTNMKCLTPEKALSGYCGFMAANLYARSIFGEDALANVSIEKPIHQGPDAAVTGHIRIRAKSQGMALSLGDKINLSQKKTSI [COPB1]”, for which the “solubility change mitosis (log2)” value in the data set with HeLa Kyoto [1] was -0.197. For the same sequence, the results for the thermal stability score in the data set with HeLa Kyoto [2] (setting [5]) and in the data set on HeLa Kyoto [2] (cell cycle stage: mitosis) were 0.105 and 1.39, respectively. The melting temperature was found to be 51.8 °C in the data set on HeLa Kyoto [3] (cell cycle stage: G1/S) and 51.7 °C in the data set on HeLa Kyoto [3] (cell cycle stage: mitosis). In addition, in the data set with HeLa Kyoto [4], the “solubility in G1/S (log2)” value was -0.149.
